Experimental data from the DeepSol protein solubility set.

Test: soluble on expression in E. coli; label from the status in PepcDB or PDB records

Sequence	soluble on expression in E. coli
MRYEIADNYYAFWFRFVYPNRKLVERELYKEALELVKRDYNHYMGRVFEKASLDFLWKRFAFERAGRWWSREEEIDVVGVKRGMAYFFEVKWKDLSEREARRSLEHHHHHH	not soluble
MGSDKIHHHHHHLEFWDGLSGGKAITPLKKEEIKHIEKQLGSRLPKSYLKKMEEQNGGDIAFNSVVVNFKNSWSDEETGLYLPLYEFMPLTIGKFVENTSVLNEWGLAGKKMIFGEGEGSYLWYFDFDENPKNPEVWCLDISDETAHLVAESFEALLPNLKKRANDDVLTHEDVFADYPSMCEIRETIKGTDEDARLEAYRMWLTRCEDLEGLIAELRQRVEHSDEEDELDSYAELLAEVLINYTSEEFMTYEEAIALFNKKEDVSDLSHVIVQLESEV	not soluble
MAHHHHHHMLQINAFKLVRATPFLLKRTGKPADTPDYKQVYLPYDAAPTERELERERRRFKQAHHGRMEHRKLVEVKEVPLNVYTYGKEGMSLPIAIFKDQKDPVIGPEWTYPGIYENKIAAQHWYTEELFDKESKEAFESPWQQQILDNQVKRRMAKVMFRMRQVNMKAVDLFQKERGSSRRSGGAGE	not soluble
MAHHHHHHMENILSKVDKIEPFDPKVKEQYNQFKYDVTKQAIESLRERIPQRIIYFNTLVNVNAEPGSILDVRDLDTKTYKYTSNQTEENARKKHKTSDHNVTEKKKDSIEMNTQNDINYEEKKIVIDENIIYTHYVPSHKQISAELEKIKAYSSELIEIIGNIKLWIQLNVPRIEDGNNFGVGIQEEAIQELARVEESAFNLYDAIVKYYMDRAKLATKVIKYPNVHDYQEAVQELDKKEWIHIKITIIDMRNNYIMLYDLLCKNWEKVVKPKNEDAHHRMTF	soluble
MTLRKILALTCLLLPMMASAHQFETGQRVPPIGITDRGELVLDKDQFSYKTWNSAQLVGKVRVLQHIAGRTSAKEKNATLIEAIKSAKLPHDRYQTTTIVNTDDAIPGSGMFVRSSLESNKKLYPWSQFIVDSNGVALGAWQLDEESSAVVVLDKDGRVQWAKDGALTPEEVQQVMDLLQKLLK	not soluble
MSGNSGASPQDMVKKLVYLSCTLNQKCGQRTGPHREPEPFLGFSVRDRSGLEGAIASVFQSSFDVLLYPTIYDQAAALLFKLANGHYFQDGNKRTAFHLCLAYLRANNVHVSPPRSDDVITLLQTTVSRSGSQENGIAFVRQKLLDWTVD	not soluble
MPNYDATHATSTETIHYVNEDGDQVFEDGGGKLDFTRTVTIDDVTNEVVEYGEWTPVTDDEFAAVTSPDKDGYTPDTSEVAAQKPDMTDGPDGTVKDVEVTVTYTANPAVATITYVDDDENGKTVKTLEHHHHHH	soluble
MGSDKIHHHHHHMKIGTYQRLKAIKFLDFGVYLLEELTQEEVLLPKRYVPEGLEMGAMLEVFLYTDSEDRPVATTLKPKAILGEVAALEVVSVSERGCYLDLGIAKDIFMPCKNPYSFHEGQKVVVRLDLDKEKRLIARIGVKNYLQNAPVTLRPFTEVEILPFEWSTLGYGCMVNGRYFGMLFNNETFEKLPLGEARKGYIKAVRPDGKIDLSLRKSQGAGGLKEELEKLMKALQSAGGKLELHYDSDPDEISKITGLSKKGFKRALGEAIRSQKVELVAGKGIEQIR	not soluble
MPEMPEDMEQEEVNIPNRRVLVTGATGLLGRAVHKEFQQNNWHAVGCGFRRARPKFEQVNLLDSNAVHHIIHDFQPHVIVHCAAERRPDVVENQPDAASQLNVDASGNLAKEAAAVGAFLIYISSDYVFDGTNPPYREEDIPAPLNLYGKTKLDGEKAVLENNLGAAVLRIPILYGEVEKLEESAVTVMFDKVQFSNKSANMDHWQQRFPTHVKDVATVCRQLAEKRMLDPSIKGTFHWSGNEQMTKYEMACAIADAFNLPSSHLRPITDSPVLGAQRPRNTQLDCSKLETLGIGQRTPFRIGIKESLWPFLIDKRWRQTVFH	not soluble
MTDTASKYAVKLKTNFEDPKWVNRHKFMFNFLDINGNGKITLDEIVSKASDDICAKLGATPAQTQRHQEAVEAFFKKIGLDYGKEVEFPAFVNGWKELAKHDLKLWSQNKKSLIRNWGEAVFDIFDKDGSGSISLDEWKTYGGISGICPSDEDAEKTFKHCDLDNSGKLDVDEMTRQHLGFWYTLDPNADGLYGNFVP	soluble
MLSVRVAIVGGGLAGLYAAALLEARGVTDYVLLEARETFGGRIMSVPVAAEPDAQRDAAERFDLGATWFWPAMQPELLRVVTAFGVEAFEQYETGAMLVERARDQPAMRIDAGASMSGAWRMAGGMGALTDAISRRLDAARLRAGWRVQRLRKVDEGVDVEAEDGVGRARCWRAAQVLLAMPPRLAVRTVAFAPALPDVLALPWAACQTWMAPHAKYLAVYDMPFWREQGLSGGARSAAGPLAEIHDASGQQGGAALFGFLGVPAAARGRMAQADLRAACRAQLVRLFGERARWPRAEFLKDWADDVCTAVDADRCAQGSHAELPPALADAGAWKDRLIGIASEWSPAFGGYAAGAVDAARRGVEALLGSPDAGVPARRHQGRLWEAWRLEHHHHHH	soluble
DLHEILHEAVPLDANEREILELKEDAFAQRRREIETRLRAANGKLADAIAKNPAWSPEVEAATQEVERAAGDLQRATLVHVFEMRAGLKPEHRPAYDRVLIDALRRGSQ	soluble
MGHHHHHHSHLTVQFVPSQNAGTLEAKAKPLEKLLSKELGIPVKVSVSTNYNTIVEAMKSKKVDVGFLPPTAYTLAHDQKAADLLLQAQRFGVKEDGSASKELVDSYKSEILVKKDSKIKSLKDLKGKKIALQDVTSTAGYTFPLAMLKNEAGINATKDMKIVNVKGHDQAVISLLNGDVDAAAVFNDARNTVKKDQPNVFKDTRILKLTQAIPNDTISVRPDMDKDFQEKLKKAFIDIAKSKEGHKIISEVYSH	not soluble
MSLKNFVVKDIGIPKYIENMVGKGDFYLLNKRKLNSHKGQNGKVLIIGGSKEYHGAPVFSGLAASKFADIVTVASVSNVIGTVRNYPELMPYELNGEYIGQKNTDELLKLSKNYDCTVLGSGLSLNSSTKEFVNSYLNETNGKVVIDADAIKLIDYGNFEFKNNFIFTPHKKEFEYMKDYVKKYAKNQGFNSTVVLKGSIDIVFDPDNIKMNITGNQGMTAGGTGDILCGIIGAICACNDAFPSACCGTYINGYCGDLLEKEYGYYYNSTDIIKILPKALKELLYEGHHHHHH	soluble
MADNPASSSSQQLLALRVMRLARPKFAPVDGFSHDPVDPTGFGELLAGKVSEISKESRQDLPIGEYLIAPQMFENIYLGETFTFYVNVVNESEKTVSSVSLKCELQTSTQRVVLPCSVQDATIESSKCEGQVISHEVKEIGQHILICSVNYKTSNGENMYFRKFFKFPVSKPIDVKTKFYSAENQDVYLEAQIENTSNANMFLEKVELDPSQHYNVTSIAHEDEFGDVGKLLKPKDIRQFLFCLTPADVHNTLGYKDLTSIGKLDMSWRTSMGEKGRLQTSALQRIAPGYGDVRLSVEKTPACVDVQKPFEVSCRLYNCSERALDLQLRLEQPSNRHLVFCSPSGVSLGQLPPSQHVDFSLNVFPVTVGIQSISGIRITDTFTKRIYEHDDIAQIFVS	not soluble
GAMDPMICLGLEGTAEKTGVGIVTSDGEVLFNKTIMYKPPKQGINPREAADHHAETFPKLIKEAFEVVDKNEIDLIAFSQGPGLGPSLRVTATVARTLSLTLKKPIIGVNHCIAHIEIGKLTTEAEDPLTLYVSGGNTQVIAYVSKKYRVFGETLDIAVGNCLDQFARYVNLPHPGGPYIEELARKGKKLVDLPYTVKGMDIAFSGLLTAAMRAYDAGERLEDICYSLQEYAFSMLTEITERALAHTNKGEVMLVGGVAANNRLREMLKAMCEGQNVDFYVPPKEFCGDNGAMIAWLGLLMHKNGRWMSLDETKIIPNYRTDMVEVNWIKEIKGKKRKIPEHLIGKGAEADIKRDSYLDFDVIIKERVKKGYRDERLDENIRKSRTAREARYLALVKDFGIPAPYIFDVDLDNKRIMMSYINGKLAKDVIEDNLDIAYKIGEIVGKLHKNDVIHNDLTTSNFIFDKDLYIIDFGLGKISNLDEDKAVDLIVFKKAVLSTHHEKFDEIWERFLEGYKSVYDRWEIILELMKDVERRARYVE	soluble
GKSLKVSSPRPGLLERLSATIQRNLPGHSMLDRQLTTDGKKNQESRFSFSMIKDRIVHFAVSTKLGSVRDSASKHGGEVTFKFAQTKGAFLDQIMKHQDTSGGVCESISAHWISAHAKGESVFNQLYVGGQKGQFHIDSLVSIKQLQMDGLDPYAEQSQITESWLRENGIQPRSPLEVSGETGSKGTKDLLNAILDTGDKGSGYKKISFEGQMAGHTVAAYVDDQKGVTFFDPNFGEFSFPDKTSFSNWFSQDFWSKSMYNKEIGLGQNFYVSNFEP	not soluble
MSLDVAALVSGGVDSSVVVHRLCEEGYKPAIFYIRIGMEDKDGYIDCPAEEDIELTTLIARRYGCPFEVVDLHKEYWERVVSYTVETVRRGLTPNPDMMCNKLIKFGCFEERWGYQFDRIATGHYATTDLLNGKTYLSTAKDPVKDQTDFLAQINFAQISKLMFPIGHLLKSEVRAIANAAGLPSAKRKDSQGICFLGKIDYNDFIERYLGKKEGRIIELETGKVIGRHQGYWFHTIGQRKGLGLSGGPWFVVKKDIKRNIILVSRGYDPDAQYGKTIEMETFDFITEDAYEAGYWNREDATPVTFKIRHTPEFTRGLLYKGEKGYRLESEERIQGIAPGQYCVIYDEDHHLCYGSGMITKGREGHHHHHH	soluble
LGGNANAGLEVLKDATAQAIADAKALLAAGKVSVKIQEPCDEILFSRAKVWNGEKWACVTIVGGHTNIVHIETHNGVVFTQQACVTEGEQESPLTVLSRTTLAEILKFVNEVPFAAIRFILDSAKLNCALSQEGLSGNWGLHIGATLEKQCARGLLAKDLSSSIVIRTSAASDARMGGATLPAMSNSGSGNQGITATMPVVVVAEHFGADDERLARALMLSHLSAIYIHNQLPR	not soluble
SDPVVLSYMDSLLRQSDVSLLDPPSWLNDHIIGFAFEYFANSQFHDCSDHVSFISPEVTQFIKCTSNPAEIAMFLEPLDLPNKRVVFLAINDNSNQAAGGTHWSLLVYLQDKNSFFHYDSHSRSNSVHAKQVAEKLEAFLGRKGDKLAFVEEKAPAQQNSYDCGMYVICNTEALCQNFFRQQTESLLQLLTPAYITKKRGEWKDLIATLAKK	soluble
MGSDKIHHHHHHMRGRGMDIFISKKMRNFILLAQTNNIARAAEKIHMTASPFGKSIAALEEQIGYTLFTRKDNNISLNKAGQELYQKLFPVYQRLSAIDNEIHNSGRRSREIVIGIDNTYPTIIFDQLISLGDKYEGVTAQPVEFSENGVIDNLFDRQLDFIISPQHVSARVQELENLTISELPPLRLGFLVSRRYEERQEQELLQELPWLQMRFQNRANFEAMIDANMRPCGINPTIIYRPYSFMAKISAVERGHFLTVIPHFAWRLVNPATLKYFDAPHRPMYMQEYLYSIRNHRYTATMLQHIAEDRDGTSH	not soluble
MDERTELLKRIEELEEKLRQCQQREQELEALIEEYNEVMKKQFQVFDDFFEKLGTTKMIDPLTRVYAKDHFLRLLSYQHQRAFEENTPYTIFFVKTKVSKNEREKALMKIGKILKECVRVPLDSVGRYSDDTFALFVIGVGKETAPNIEERIKNHIESIGGIEYSIAYKSYPEDFMDLEKAILDLEKAVA	not soluble
MGSDKIHHHHHHMNMLLSEEQRDALQELMNISMGQAANSLARLIEAKITLSIPKISDVTPEQFVSMLSDQTMWYTRQSFLGSIKGEVISTLSKQGCDAIGKLMDYQPPLTQDRLNELLLELANILAGACLTGFAEQLSLNAKLSMPTMYSATSQHYHYRWASTLMMEVEFKVEVSQFDSKIVICLEEASVQTLLAKLQQLLE	not soluble
